Data published in paper PMC10397247.
Values belong to the binder of their own block, whether it stands above or below them.

Tests used:
4H264-bH = molecular target: T1, 4H264-bH; experiment: two-hybrid library CCNG1;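 further: natural log of median RNA to DNA barcode read ratio; higher means stronger binding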
T1 chain: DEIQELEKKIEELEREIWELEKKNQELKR

4H2760-bH = molecular target: T2, 4H2760-bH; experiment: two-hybrid library CCNG1;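 further: natural log of median RNA to DNA barcode read ratio; higher means stronger binding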
T2 chain: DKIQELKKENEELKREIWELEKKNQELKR

4H2859-bH = molecular target: T3, 4H2859-bH; experiment: two-hybrid library CCNG1;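 further: natural log of median RNA to DNA barcode read ratio; higher means stronger binding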
T3 chain: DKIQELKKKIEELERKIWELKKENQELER

4H2931-bH = molecular target: T4, 4H2931-bH; experiment: two-hybrid library CCNG1;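 further: natural log of median RNA to DNA barcode read ratio; higher means stronger binding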
T4 chain: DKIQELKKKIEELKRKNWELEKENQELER

4H3010-bA = molecular target: T5, 4H3010-bA; experiment: two-hybrid library CCNG1
T5 chain: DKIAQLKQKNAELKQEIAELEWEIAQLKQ

4H3041-bH = molecular target: T6, 4H3041-bH; experiment: two-hybrid library CCNG1
T6 chain: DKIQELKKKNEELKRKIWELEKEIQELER

4H3297-bH = molecular target: T7, 4H3297-bH; experiment: two-hybrid library CCNG1
T7 chain: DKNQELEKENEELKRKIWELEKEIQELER

4H3364-bH = molecular target: T8, 4H3364-bH; experiment: two-hybrid library CCNG1
T8 chain: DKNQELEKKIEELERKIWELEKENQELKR

4H3381-bH = molecular target: T9, 4H3381-bH; experiment: two-hybrid library CCNG1
T9 chain: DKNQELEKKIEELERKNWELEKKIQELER

4H349-bH = molecular target: T10, 4H349-bH; experiment: two-hybrid library CCNG1
T10 chain: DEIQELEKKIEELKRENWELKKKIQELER

4H56-bH = molecular target: T11, 4H56-bH; experiment: two-hybrid library CCNG1
T11 chain: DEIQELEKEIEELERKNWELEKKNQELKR

4H730-bH = molecular target: T12, 4H730-bH; experiment: two-hybrid library CCNG1
T12 chain: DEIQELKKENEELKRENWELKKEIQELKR

4H796-bH = molecular target: T13, 4H796-bH; experiment: two-hybrid library CCNG1
T13 chain: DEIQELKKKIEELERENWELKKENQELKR

4H932-bH = molecular target: T14, 4H932-bH; experiment: two-hybrid library CCNG1
T14 chain: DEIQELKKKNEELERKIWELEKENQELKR

4H949-bH = molecular target: T15, 4H949-bH; experiment: two-hybrid library CCNG1
T15 chain: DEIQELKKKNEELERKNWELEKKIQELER

O8-bA = molecular target: T16, O8-bA; experiment: two-hybrid library CCNG1
T16 chain: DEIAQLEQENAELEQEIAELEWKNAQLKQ

P2-AA-1HAA-D = molecular target: T17, P2-AA-1HAA-D; experiment: two-hybrid library CCmax; settings: mean of both orientations
T17 chain: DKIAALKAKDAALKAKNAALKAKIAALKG

P2-AA-1HAA-E = molecular target: T18, P2-AA-1HAA-E; experiment: two-hybrid library CCmax; settings: mean of both orientations
T18 chain: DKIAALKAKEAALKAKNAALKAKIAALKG

P2-AA-1HAA-I = molecular target: T19, P2-AA-1HAA-I; experiment: two-hybrid library CCmax; settings: mean of both orientations
T19 chain: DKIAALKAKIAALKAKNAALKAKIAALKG

P2-AA-1HAA-R = molecular target: T20, P2-AA-1HAA-R; experiment: two-hybrid library CCmax; settings: mean of both orientations
T20 chain: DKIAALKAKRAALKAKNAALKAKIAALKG

P2-AA-1HAA-S = molecular target: T21, P2-AA-1HAA-S; experiment: two-hybrid library CCmax; settings: mean of both orientations
T21 chain: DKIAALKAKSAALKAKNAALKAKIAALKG

P2-AA-1HAA-T = molecular target: T22, P2-AA-1HAA-T; experiment: two-hybrid library CCmax; settings: mean of both orientations
T22 chain: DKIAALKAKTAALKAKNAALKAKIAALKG

P2-AA-1HAA-V = molecular target: T23, P2-AA-1HAA-V; experiment: two-hybrid library CCmax; settings: mean of both orientations
T23 chain: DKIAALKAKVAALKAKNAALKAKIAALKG

P2-AA = molecular target: T24, P2-AA; experiment: two-hybrid library CCmax; settings: mean of both orientations
T24 chain: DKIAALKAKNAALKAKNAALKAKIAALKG

4H3277-bN = molecular target: T25, 4H3277-bN; experiment: two-hybrid library CCNG1
T25 chain: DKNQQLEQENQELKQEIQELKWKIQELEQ

4H3298-bN = molecular target: T26, 4H3298-bN; experiment: two-hybrid library CCNG1
T26 chain: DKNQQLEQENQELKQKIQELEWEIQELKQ

4H3462-bN = molecular target: T27, 4H3462-bN; experiment: two-hybrid library CCNG1
T27 chain: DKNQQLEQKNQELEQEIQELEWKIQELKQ

4H348-bN = molecular target: T28, 4H348-bN; experiment: two-hybrid library CCNG1
T28 chain: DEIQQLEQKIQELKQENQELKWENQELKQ

4H3497-bN = molecular target: T29, 4H3497-bN; experiment: two-hybrid library CCNG1
T29 chain: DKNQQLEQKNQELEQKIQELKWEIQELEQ

4H3613-bN = molecular target: T30, 4H3613-bN; experiment: two-hybrid library CCNG1
T30 chain: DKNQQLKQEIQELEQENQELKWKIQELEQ

4H3628-bN = molecular target: T31, 4H3628-bN; experiment: two-hybrid library CCNG1
T31 chain: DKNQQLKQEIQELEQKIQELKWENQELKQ

4H3926-bN = molecular target: T32, 4H3926-bN; experiment: two-hybrid library CCNG1
T32 chain: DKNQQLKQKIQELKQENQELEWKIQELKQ

4H40-bN = molecular target: T33, 4H40-bN; experiment: two-hybrid library CCNG1
T33 chain: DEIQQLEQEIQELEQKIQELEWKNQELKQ

4H477-bN = molecular target: T34, 4H477-bN; experiment: two-hybrid library CCNG1
T34 chain: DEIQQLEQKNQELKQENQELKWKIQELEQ

4H492-bN = molecular target: T35, 4H492-bN; experiment: two-hybrid library CCNG1
T35 chain: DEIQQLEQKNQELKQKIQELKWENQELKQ

4H591-bN = molecular target: T36, 4H591-bN; experiment: two-hybrid library CCNG1
T36 chain: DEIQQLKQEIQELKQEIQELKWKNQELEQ

4H626-bN = molecular target: T37, 4H626-bN; experiment: two-hybrid library CCNG1
T37 chain: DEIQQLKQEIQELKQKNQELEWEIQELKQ

4H741-bN = molecular target: T38, 4H741-bN; experiment: two-hybrid library CCNG1
T38 chain: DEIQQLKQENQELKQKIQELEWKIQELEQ

4H754-bN = molecular target: T39, 4H754-bN; experiment: two-hybrid library CCNG1
T39 chain: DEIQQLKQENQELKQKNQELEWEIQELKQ

4H906-bN = molecular target: T40, 4H906-bN; experiment: two-hybrid library CCNG1
T40 chain: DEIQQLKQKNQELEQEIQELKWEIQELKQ

O4-bP = molecular target: T41, O4-bP; experiment: two-hybrid library CCNG1
T41 chain: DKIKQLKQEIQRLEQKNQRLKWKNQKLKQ

O5-bP = molecular target: T42, O5-bP; experiment: two-hybrid library CCNG1
T42 chain: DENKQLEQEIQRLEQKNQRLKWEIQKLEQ

O6-bP = molecular target: T43, O6-bP; experiment: two-hybrid library CCNG1
T43 chain: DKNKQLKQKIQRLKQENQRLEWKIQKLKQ

O7-bP = molecular target: T44, O7-bP; experiment: two-hybrid library CCNG1
T44 chain: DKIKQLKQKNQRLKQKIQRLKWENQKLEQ

O8-bP = molecular target: T45, O8-bP; experiment: two-hybrid library CCNG1
T45 chain: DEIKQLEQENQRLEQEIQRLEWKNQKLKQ

O9-bP = molecular target: T46, O9-bP; experiment: two-hybrid library CCNG1
T46 chain: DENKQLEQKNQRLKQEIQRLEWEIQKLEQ

4H575-bA = molecular target: T47, 4H575-bA; experiment: two-hybrid library CCNG1
T47 chain: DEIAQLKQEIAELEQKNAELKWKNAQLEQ

4H683-bA = molecular target: T48, 4H683-bA; experiment: two-hybrid library CCNG1
T48 chain: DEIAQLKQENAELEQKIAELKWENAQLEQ

4H754-bA = molecular target: T49, 4H754-bA; experiment: two-hybrid library CCNG1
T49 chain: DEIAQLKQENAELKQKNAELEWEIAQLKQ

4H780-bA = molecular target: T50, 4H780-bA; experiment: two-hybrid library CCNG1
T50 chain: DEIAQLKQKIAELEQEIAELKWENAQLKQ

4H797-bA = molecular target: T51, 4H797-bA; experiment: two-hybrid library CCNG1
T51 chain: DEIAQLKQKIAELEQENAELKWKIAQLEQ

4H855-bA = molecular target: T52, 4H855-bA; experiment: two-hybrid library CCNG1
T52 chain: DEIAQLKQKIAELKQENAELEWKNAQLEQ

4H918-bA = molecular target: T53, 4H918-bA; experiment: two-hybrid library CCNG1
T53 chain: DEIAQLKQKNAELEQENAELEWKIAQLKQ

4H953-bA = molecular target: T54, 4H953-bA; experiment: two-hybrid library CCNG1
T54 chain: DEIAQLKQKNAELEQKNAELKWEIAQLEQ

4H968-bA = molecular target: T55, 4H968-bA; experiment: two-hybrid library CCNG1
T55 chain: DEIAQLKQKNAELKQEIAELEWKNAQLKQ

P7A-bA = molecular target: T56, P7A-bA; experiment: two-hybrid library CCNG1
T56 chain: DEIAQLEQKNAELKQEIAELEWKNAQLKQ

Binder: DEIQELEKKIEELEREIWELEKKNQELKR [4H264-bH]
interaction score (4H264-bH): 0.678 | interaction score (4H2760-bH): 0.562 | interaction score (4H2859-bH): 1.8 | interaction score (4H2931-bH): 0.678 | interaction score (4H3010-bA): 1.67 | interaction score (4H3041-bH): 1.23 | interaction score (4H3297-bH): 1.11 | interaction score (4H3364-bH): 0.996 | interaction score (4H3381-bH): 1.06 | interaction score (4H349-bH): 0.113 | interaction score (4H56-bH): -0.538 | interaction score (4H730-bH): 0.131 | interaction score (4H796-bH): -0.303 | interaction score (4H932-bH): -0.203 | interaction score (4H949-bH): -0.764 | interaction score (O8-bA): 0.091

Binder: DEIAALEAESAALEAENAALEAEIAALEG [P1-AA-1HAA-S]
interaction score (P2-AA-1HAA-D): 1.28 | interaction score (P2-AA-1HAA-E): 1.97 | interaction score (P2-AA-1HAA-I): 2.17 | interaction score (P2-AA-1HAA-R): 2.17 | interaction score (P2-AA-1HAA-S): 1.18 | interaction score (P2-AA-1HAA-T): 1.87 | interaction score (P2-AA-1HAA-V): 2 | interaction score (P2-AA): 2.06

Binder: DKIKQLKQEIQRLEQKNQRLKWKNQKLKQ [O4-bP]
interaction score (O4-bP): -0.959 | interaction score (O5-bP): -0.998 | interaction score (O6-bP): -0.676 | interaction score (O7-bP): -0.866 | interaction score (O8-bP): -2.5 | interaction score (O9-bP): -0.425

Further lines, results first:

interaction score (4H3277-bN): 1.19 | interaction score (4H3298-bN): -0.281 | interaction score (4H3462-bN): -1 | interaction score (4H348-bN): -1.89 | interaction score (4H3497-bN): -0.895 | interaction score (4H3613-bN): -1.08 | interaction score (4H3628-bN): -0.458 | interaction score (4H3926-bN): -0.4 | interaction score (4H40-bN): 0.44 | interaction score (4H477-bN): -1.11 | interaction score (4H492-bN): -1.45 | interaction score (4H591-bN): -1.66 | interaction score (4H626-bN): -0.819 | interaction score (4H741-bN): -0.405 | interaction score (4H754-bN): -1.54 | interaction score (4H906-bN): -1.79
Binder: DKNQQLEQENQELKQEIQELKWKIQELEQ [4H3277-bN]

interaction score (4H575-bA): -0.354 | interaction score (4H683-bA): -0.37 | interaction score (4H754-bA): -0.786 | interaction score (4H780-bA): -1.33 | interaction score (4H797-bA): -0.567 | interaction score (4H855-bA): 1.12 | interaction score (4H918-bA): 0.24 | interaction score (4H953-bA): -0.885 | interaction score (4H968-bA): -0.872 | interaction score (P7A-bA): -1.17
Binder: DEIAQLKQEIAELEQKNAELKWKNAQLEQ [4H575-bA]
